The text below walks through data of the supplement of paper PMC7877785.

± gives the uncertainty stated by the source.

A short description of the series: self-splicing fitness, log relative to wild type (ln ratio); higher = more splicing; Tetrahymena group I intron in knt gene, E. coli kanamycin selection, DiMSum; sequences stand for … in CUCUCU…GGAGGGAAAAGUUAUCAGGCAUGCACCUGGUAGCUAGUCUUUAAACCAAUAGAUUGCAUCGGUUUAAAAGGCAAGACCGUCAAAUUGCGGGAAAGGGGUCAACAGCCGUUCAGUACCAAGUCUCAGGGGAAACUUUGAGAUGGCCUUGCAAAGGGUAUGGUAAUAAGCUGACGGACAUGGUCCUAACCACGCAGCCAAGUCCUAAGUCAACAGAUCUUCUGUUGAUAUGGAUGCAGUUCACAGACUAAAUGUCGGUCGGGGAAGAUGUAUUCUUCUCAUAAGAUAUAGUCGGACCUCUCCUUAAUGGGAGCUAGCGGAUGAAGUGAUGCAACACUGGAGCCGCUGGGAACUAAUUUGUAUGCGAAAGUAUAUUGAUUAGUUUUGGAGUACUCGUGGUCG
In short, it runs like this:
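DiMSum derived fitness as the error-weighted combination of fold changes across replicates, kanamycin versus no kanamycin, normalised to wild type. E. coli BL21(DE3) held the library, which randomised all eight P1ex-region intron nucleotides within the knt kanamycin-resistance gene on pET-22b(+). Six replicate transformations grew overnight at 37°C or 30°C on LB agar with or without 25 μg/mL kanamycin, also containing 100 μg/mL carbenicillin, 50 μM IPTG and 0.2% rhamnose, and pooled colonies were amplicon-sequenced on an Illumina HiSeq 2500.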

Consider CACGAGCAAUAUUACGGCGU, for which the “self-splicing fitness (ln)” value (30 °C) was -2.68 ± 0.21 and the “self-splicing fitness (ln)” value (37 °C) is -2.53 ± 0.26.

Turning to UGAUAGCAAUAUUACGCUAG, the “self-splicing fitness (ln)” value reads like this: (30 °C) -1.09 ± 0.081; (37 °C) -0.588 ± 0.078.

With GGUCAGCAAUAUUACGACGU, the “self-splicing fitness (ln)” value is 0.0937 ± 0.091 (30 °C) and 0.477 ± 0.1 (37 °C).

UUUUAGCAAUAUUACGGGUA: the “self-splicing fitness (ln)” value (30 °C) is -1.75 ± 0.3 and the “self-splicing fitness (ln)” value (37 °C) is -0.417 ± 0.28.

Turning to CCGUAGCAAUAUUACGGCUA, the “self-splicing fitness (ln)” value (30 °C) is -3.49 ± 0.34 and the “self-splicing fitness (ln)” value (37 °C) is -3.04 ± 0.35.

Regarding CCUGAGCAAUAUUACGAUUU, the “self-splicing fitness (ln)” value by setting is: (30 °C) -3.27 ± 0.19; (37 °C) -2.3 ± 0.16.

For the sequence AUCCAGCAAUAUUACGAUCU, the “self-splicing fitness (ln)” value (30 °C) was -1.84 ± 0.091 and the “self-splicing fitness (ln)” value (37 °C) was -0.641 ± 0.12.

On to AAACAGCAAUAUUACGGUCA, for which the “self-splicing fitness (ln)” value by setting is: (30 °C) -0.86 ± 0.089; (37 °C) 0.186 ± 0.097.

As to UACAAGCAAUAUUACGCUGG, the “self-splicing fitness (ln)” value was -2.54 ± 0.15 (30 °C) and -1.87 ± 0.15 (37 °C).

For AGAUAGCAAUAUUACGGCGA, the “self-splicing fitness (ln)” value was -0.537 ± 0.14 (30 °C) and -0.0635 ± 0.14 (37 °C).

As for AAUUAGCAAUAUUACGAUGA, the “self-splicing fitness (ln)” value by setting is: (30 °C) -0.632 ± 0.094; (37 °C) -0.429 ± 0.11.

As to GCCAAGCAAUAUUACGUUAA, the “self-splicing fitness (ln)” value reads like this: (30 °C) -3.54 ± 0.21; (37 °C) -2.89 ± 0.17.

In the case of AUAUAGCAAUAUUACGGUGC, the “self-splicing fitness (ln)” value is -2.77 ± 0.38 (30 °C) and -1.94 ± 0.27 (37 °C).

Consider GCGAAGCAAUAUUACGGGAG, for which the “self-splicing fitness (ln)” value is, setting by setting: (30 °C) -3.05 ± 0.17; (37 °C) -2.62 ± 0.22.

For CGUGAGCAAUAUUACGCUGC, the “self-splicing fitness (ln)” value (30 °C) was -2.64 ± 0.32.

Turning to UGGUAGCAAUAUUACGCUGU, the “self-splicing fitness (ln)” value was -3.24 ± 0.19 (30 °C) and -2.12 ± 0.17 (37 °C).

Take AUUUAGCAAUAUUACGUUCC: the “self-splicing fitness (ln)” value is, setting by setting: (30 °C) -1.54 ± 0.26; (37 °C) -1.23 ± 0.49.

For CGACAGCAAUAUUACGUGCU, the “self-splicing fitness (ln)” value reads like this: (30 °C) -4.84 ± 0.36; (37 °C) -3.46 ± 0.23.

As to AUUAAGCAAUAUUACGAAAA, the “self-splicing fitness (ln)” value reads like this: (30 °C) -1.27 ± 0.16; (37 °C) -1.5 ± 0.18.

Regarding GCUUAGCAAUAUUACGGACA, the “self-splicing fitness (ln)” value runs as follows: (30 °C) -0.409 ± 0.13; (37 °C) -1.15 ± 0.13.

As to UAUGAGCAAUAUUACGGGCU, the “self-splicing fitness (ln)” value (37 °C) is -1.8 ± 0.47.

Regarding AAUUAGCAAUAUUACGAAUC, the “self-splicing fitness (ln)” value by setting is: (30 °C) -2.34 ± 0.16; (37 °C) -0.829 ± 0.16.

With CUCCAGCAAUAUUACGUAGC, the “self-splicing fitness (ln)” value runs as follows: (30 °C) -2.49 ± 0.2; (37 °C) -2.36 ± 0.25.

For the sequence UACGAGCAAUAUUACGCUGC, the “self-splicing fitness (ln)” value (37 °C) was -2.59 ± 0.41.

GUUUAGCAAUAUUACGAUUU: the “self-splicing fitness (ln)” value (30 °C) was -0.709 ± 0.068 and the “self-splicing fitness (ln)” value (37 °C) was 0.111 ± 0.096.

Regarding GCUCAGCAAUAUUACGAGGA, the “self-splicing fitness (ln)” value by setting is: (30 °C) -0.479 ± 0.12; (37 °C) -0.741 ± 0.12.

As for AUUAAGCAAUAUUACGAACC, the “self-splicing fitness (ln)” value (30 °C) was -1.35 ± 0.29 and the “self-splicing fitness (ln)” value (37 °C) is -0.847 ± 0.29.

Turning to GUACAGCAAUAUUACGUAUA, the “self-splicing fitness (ln)” value was -1.77 ± 0.11 (30 °C) and -1 ± 0.12 (37 °C).

UUGUAGCAAUAUUACGAAUC: the “self-splicing fitness (ln)” value runs as follows: (30 °C) -3.06 ± 0.14; (37 °C) -2.76 ± 0.24.

Turning to GCGCAGCAAUAUUACGGAGA, the “self-splicing fitness (ln)” value was -4.36 ± 0.42 (30 °C) and -1.69 ± 0.19 (37 °C).

UGACAGCAAUAUUACGUGUA: the “self-splicing fitness (ln)” value runs as follows: (30 °C) -1.58 ± 0.081; (37 °C) -0.841 ± 0.081.

Take GAACAGCAAUAUUACGACCU: the “self-splicing fitness (ln)” value runs as follows: (30 °C) -0.509 ± 0.099; (37 °C) -0.0216 ± 0.13.

With UCCAAGCAAUAUUACGAUGA, the “self-splicing fitness (ln)” value runs as follows: (30 °C) -0.0226 ± 0.05; (37 °C) 0.466 ± 0.071.

For UGUUAGCAAUAUUACGUUGA, the “self-splicing fitness (ln)” value was -1.59 ± 0.21 (30 °C) and -0.731 ± 0.19 (37 °C).

For the sequence AGUUAGCAAUAUUACGAACG, the “self-splicing fitness (ln)” value by setting is: (30 °C) -0.391 ± 0.088; (37 °C) 0.572 ± 0.14.

For the sequence GGGCAGCAAUAUUACGUCGG, the “self-splicing fitness (ln)” value is, setting by setting: (30 °C) -0.72 ± 0.12; (37 °C) 0.392 ± 0.15.

With GGGAAGCAAUAUUACGUGUA, the “self-splicing fitness (ln)” value reads like this: (30 °C) -1.96 ± 0.14; (37 °C) -0.669 ± 0.11.

For the sequence AUAAAGCAAUAUUACGGACC, the “self-splicing fitness (ln)” value is, setting by setting: (30 °C) -0.681 ± 0.16; (37 °C) -0.941 ± 0.24.

Take GCCCAGCAAUAUUACGCAGG: the “self-splicing fitness (ln)” value is, setting by setting: (30 °C) -3.19 ± 0.13; (37 °C) -2.27 ± 0.15.

Turning to CGAAAGCAAUAUUACGGGAC, under “37 °C”, the “self-splicing fitness (ln)” value is -2.59 ± 0.32.

As to UGACAGCAAUAUUACGAAAG, the “self-splicing fitness (ln)” value was -3.07 ± 0.25 (30 °C) and -2.15 ± 0.2 (37 °C).

GACAAGCAAUAUUACGGUUU: the “self-splicing fitness (ln)” value (30 °C) is -1.79 ± 0.079 and the “self-splicing fitness (ln)” value (37 °C) is -0.351 ± 0.074.

On to UUAAAGCAAUAUUACGGGGG, for which the “self-splicing fitness (ln)” value (30 °C) was -1.83 ± 0.13 and the “self-splicing fitness (ln)” value (37 °C) was -2.16 ± 0.2.

With ACCGAGCAAUAUUACGAGGU, the “self-splicing fitness (ln)” value is -2.42 ± 0.23 (30 °C) and -0.758 ± 0.2 (37 °C).

As for UGGAAGCAAUAUUACGCGAC, the “self-splicing fitness (ln)” value (30 °C) is -2.77 ± 0.37.

On to GACCAGCAAUAUUACGUAUA, for which the “self-splicing fitness (ln)” value by setting is: (30 °C) -1.06 ± 0.059; (37 °C) -0.251 ± 0.079.

On to GCUCAGCAAUAUUACGGUGA, for which the “self-splicing fitness (ln)” value was -3.42 ± 0.25 (30 °C) and -1.69 ± 0.16 (37 °C).

UACGAGCAAUAUUACGGAGG: for the setting “30 °C”, the “self-splicing fitness (ln)” value was -2.06 ± 0.5.

Regarding ACACAGCAAUAUUACGUACC, the “self-splicing fitness (ln)” value reads like this: (30 °C) -1.43 ± 0.11; (37 °C) -1.12 ± 0.15.

For the sequence UCCUAGCAAUAUUACGCUCU, the “self-splicing fitness (ln)” value was -3.33 ± 0.3 (30 °C) and -2.67 ± 0.3 (37 °C).

Regarding CCUAAGCAAUAUUACGUAGG, the “self-splicing fitness (ln)” value is -3.82 ± 0.15 (30 °C) and -2.94 ± 0.22 (37 °C).

AAAAAGCAAUAUUACGCUCA: the “self-splicing fitness (ln)” value is -0.278 ± 0.058 (30 °C) and 0.0203 ± 0.082 (37 °C).

For the sequence CUCAAGCAAUAUUACGGCAA, the “self-splicing fitness (ln)” value reads like this: (30 °C) -3.15 ± 0.32; (37 °C) -1.32 ± 0.24.

Take CGAAAGCAAUAUUACGAUGG: the “self-splicing fitness (ln)” value (30 °C) was -0.519 ± 0.07 and the “self-splicing fitness (ln)” value (37 °C) is 0.406 ± 0.1.

As for GGGUAGCAAUAUUACGGUGC, the “self-splicing fitness (ln)” value by setting is: (30 °C) -1.9 ± 0.085; (37 °C) -1.34 ± 0.092.

AGUGAGCAAUAUUACGGUAU: the “self-splicing fitness (ln)” value (30 °C) was -3.9 ± 0.23 and the “self-splicing fitness (ln)” value (37 °C) was -2.31 ± 0.24.

As to UAGGAGCAAUAUUACGGUGU, the “self-splicing fitness (ln)” value runs as follows: (30 °C) -3.4 ± 0.3; (37 °C) -2.9 ± 0.43.

Take AGCUAGCAAUAUUACGUGGU: the “self-splicing fitness (ln)” value is, setting by setting: (30 °C) -2.52 ± 0.17; (37 °C) -2.18 ± 0.24.

With UUGCAGCAAUAUUACGCUUG, the “self-splicing fitness (ln)” value (30 °C) is -3.08 ± 0.27 and the “self-splicing fitness (ln)” value (37 °C) was -1.97 ± 0.29.

CUGCAGCAAUAUUACGCAGU: the “self-splicing fitness (ln)” value is, setting by setting: (30 °C) -1.6 ± 0.14; (37 °C) -3.15 ± 0.35.

Take UCCAAGCAAUAUUACGGGCC: the “self-splicing fitness (ln)” value is -4.08 ± 0.32 (30 °C) and -1.72 ± 0.25 (37 °C).

For the sequence GGUCAGCAAUAUUACGUCUG, the “self-splicing fitness (ln)” value by setting is: (30 °C) -0.665 ± 0.094; (37 °C) -0.321 ± 0.11.
